One block for each binder: values may come before it.
Biological target: human PSMA protein (ELISA) (human, UniProt Q04609 44-750)
Test: BLI (Octet)

Sequence of human PSMA protein (ELISA) (Q04609 44-750): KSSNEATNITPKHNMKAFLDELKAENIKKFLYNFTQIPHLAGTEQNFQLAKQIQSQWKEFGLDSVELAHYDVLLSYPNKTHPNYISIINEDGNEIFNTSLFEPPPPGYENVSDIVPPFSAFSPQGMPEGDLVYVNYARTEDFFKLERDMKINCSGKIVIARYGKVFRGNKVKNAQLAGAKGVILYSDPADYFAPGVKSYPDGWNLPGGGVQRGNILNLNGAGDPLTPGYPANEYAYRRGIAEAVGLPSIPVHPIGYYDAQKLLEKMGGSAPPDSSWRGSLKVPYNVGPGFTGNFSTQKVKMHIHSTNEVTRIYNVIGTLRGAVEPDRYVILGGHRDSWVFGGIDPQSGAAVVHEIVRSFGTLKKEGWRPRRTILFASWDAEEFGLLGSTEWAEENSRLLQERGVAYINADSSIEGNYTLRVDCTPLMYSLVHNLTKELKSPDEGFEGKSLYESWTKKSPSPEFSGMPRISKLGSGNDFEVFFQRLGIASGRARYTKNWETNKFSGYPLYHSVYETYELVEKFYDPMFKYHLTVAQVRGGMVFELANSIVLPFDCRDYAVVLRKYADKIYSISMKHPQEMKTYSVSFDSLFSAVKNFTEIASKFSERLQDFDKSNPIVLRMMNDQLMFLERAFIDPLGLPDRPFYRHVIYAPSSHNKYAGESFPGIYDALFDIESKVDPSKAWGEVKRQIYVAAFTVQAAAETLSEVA

Kd: 24.9 nM
B1: Anti-PSMA heavy chain-only antibody (UniAb) Clone ID 325795 (antibody, V domains shown)
VH: EVQLLESGGGLVQPGGSLRLSCAASGFTFKFYAMSWVRQAPGKGPEWVSVISGSGGSTYYADSVKGRFTISRDNSKNTLHLQMNSLRAEDTAVYFCAKEIAEASRGFDYRGQGTLVTVSS

Kd: 17 nM
B2: Anti-PSMA heavy chain-only antibody (UniAb) Clone ID 325972 (antibody, V domains shown)
VH: EVQLLESGGGVVQPGRSLRLSCAASGFSFSGYGMHWVRQAPGKEREWVAVISYDGSNKYYADSVKGRFTISRDNSKNTLYLQMNSLRAEDTAVYYCAKDANWGQHPDHTSFDYRGQGTLVTVSS
